Data taken from paper PMC7801473 (2021).

biological target: NLRP1^CARD (human) (UniProt Q9C000); assay: SEC-MALS; Superdex 200 10/30, 500 mM NaCl, 20 mM CHES-HCl pH 9.0, 500 uL at 0.5 mg/mL, 0.5 mL/min; monomer to dimer; settings: not given

stoichiometry N | Substance
2 | NLRP1^CARD (from UniProt Q9C000-1 1397-1462) (domain or fragment)

biological target: MBP-ASC^CARD (human) (UniProt Q9ULZ3); assay: SEC; His-tagged MBP-ASC^CARD incubated with a threefold concentration of untagged NLRP1^CARD for 4 h, first purified by Ni-affinity chromatography, then Superdex gel filtration; complex in the void (~9 mL); also run at 0.15, 0.5 and 1.0 M NaCl (complex decreased with salt); ratio from gray scales of the PAGE gel; settings: not given
Sequence (Q9ULZ3 95-195): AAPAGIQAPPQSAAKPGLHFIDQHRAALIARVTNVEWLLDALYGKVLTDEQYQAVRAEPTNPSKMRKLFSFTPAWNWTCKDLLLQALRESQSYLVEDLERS

stoichiometry N (NLRP1^CARD : ASC^CARD) | Substance
0.5 | NLRP1^CARD (from UniProt Q9C000-1 1397-1462) (domain or fragment)

biological target: ASC^CARD (self-interaction; state of second copy not shown); assay: M2H (mammalian two-hybrid, luciferase); settings: HEK293T cells; luciferase normalized to Renilla; parent: est. 4.2; read off a plot

response (fold of negative control) | Substance
1.2 | ASC^CARD (M2H fusion) (from UniProt Q9ULZ3-1) D143A; E144A
1.2 | ASC^CARD (M2H fusion) (from UniProt Q9ULZ3-1) R125A; T127A
1.2 | ASC^CARD (M2H fusion) (from UniProt Q9ULZ3-1) R160E
1.3 | ASC^CARD (M2H fusion) (from UniProt Q9ULZ3-1) R119D
1.2 | ASC^CARD (M2H fusion) (from UniProt Q9ULZ3-1) W169G; N170A
1.4 | ASC^CARD (M2H fusion) (from UniProt Q9ULZ3-1) D134K
1.2 | ASC^CARD (M2H fusion) (from UniProt Q9ULZ3-1) N128A; E130R
